Reference: a protein production outcome set (Wang et al. 2014)

Assay: label from the status in PepcDB records

Sequence | protein production
MFKPQGLYDYICQQWQEEILPSLCDYIKIPNKSPHFDAKWEEHGYMEQAVNHIANWCKSHAPKGMTLEIVRLKNRTPLLFMEIPGQIDDTVLLYGHLDKQPEMSGWSDDLHPWKPVLKNGLLYGRGGADDGYSAYASLTAIRALEQQGLPYPRCILIIEACEESGSYDLPFYIELLKERIGKPSLVICLDSGAGNYEQLWMTTSLRGNLVGKLTVELINEGVHSGSASGIVADSFRVARQLISRIEDENTGEIKLPQLYCDIPDERIKQAKQCAEILGEQVYSEFPWIDSAKPVIQDKQQLILNRTWRPALTVTGADGFPAIADAGNVMRPVTSLKLSMRLPPLVDPEAASVAMEKALTQNPPYNAKVDFKIQNGGSKGWNAPLLSDWLAKAASEASMTYYDKPAAYMGEGGTIPFMSMLGEQFPKAQFMITGVLGPHSNAHGPNEFLHLDMVKKLTSCVSYVLYSFSQKK | not failed
MFKRCFSPLTLVNQLALIVMLSTAIGVAGMAVSGWLVQGVQGSAHAINKAGSLRMQSYRLLAAVPLDAKDQKLLDEMEQTAFSPELTRAAERDGQQKQLKALQDYWHNELSPRLQHAQNAHAVAEDITRFVAGLDRLVTSFDHTTELRIERVVLVHRVMAIFMALLLVFTIIWLRVRLLQPWKQLLSMARAVSQRDFTQRANISGRNEMAALGSALNNMSEELAESYAVLEQRVQEKTAGLEHKNQILSFLWQANRRLHSQAPLCERLSPVLNGLQNLTQLHDIELRVYDLEDEDNHQEFTCQSDISCDDKGCHLCPRSALPMINGGTTLKWRLTDSHTQYGILLATLPYGRHLSHDQQQLVDTLVEQLTATLALDRHQERQQRLIVMEERATIARELHDSIAQSLSCMKMQVSCLQMQGDALPESSRELLSQIRNELNCSWAQLRELLTTFRLQLTEPGLRPALEASCQEFSARFGFTVKLDYQLPPRLVPSHQAIHLLQIAREAPSNALKHSHADDVVVTVTQCGKQVKLKVQDNGCGVPENAERSNHYGMIIMRDRAQSLRGDCQVRRRETGGTEVTVTFIPETNFTETQGDTHE | failed
MFKSVQQRTIQNGQVIPFYHSTNELAHIQNILQSQTPLVSLKEINKFRQLIARASVGEYFLIQSGDCAENFYECDKDTTHAKLDFIRHLATFFHQKTGCSVIQVGRIARQYAKPRSNQYEICQNKRIYSYFGGMINQSQETQRRPNPWRILLSYNCSASIYRKINQWNRGINPEQKIYTSQEAFLFNYEQSLTRWDERTGLYYNLSTHFPWLGKRTVSSLQHINHLKKIANPIAVKIGPDTPIKNLVKVINELDPSYIPGRITLIPELGAQNVYHILPQLIDAVKRTDRTVLWSCDPMHGNTETLSSGIKIRKLSNIVEEIKNSFFIHRKMGSQLNAIHLEATHQNVTECMDYKSSHCESISDLKKNYKNLLDPRLNYAQTLHVIQCVAKYYANS | failed
MFLAGAFIAVGSLYAQSSDAEWQAGVAKLKETIQTNPAQANEEAEQLIKGKNKKNVELLVAIGEVYLKAGKLPEAQEYAALAKKVNGKSALASVLEGDIAFEQKNAGLASQKYEEAIYFDPSCTEAYLRYADIYKSANAALAIEKLEQLKAQEPSNTAVDKKLAEIYYLKNDFSKAAEAYSRFAMGPTATEEDLVKYAFALFLNHDFEKSLEVANMGLKKNARHAAFNRLAMYNYTDLKRFDEAIKAADAFFTESDKADYSYLDYMYYGHLLEALKKYDEAVGQYEKAIQLDPTKTDLYKNISSAYEQKNDYKKAISAYQKYYTSLDKEHQTPDLQFQFGRLYYGAGTQTDSLTINAEERKQALMAADSVFHSIAEAAPDSYLGNFWRARANSALDPETTLGLAKPFYEEVATLLESKNDPHYNSALIECYSYLGYYYLLAIENPALKAEAMANKEKSKEYWSKILAIDSTNATAKRALDGIK | failed
MFLFLTCKIGNRMVKLRTFINISEDLFVIRNLIGAILQGIGLAYLVPVLLAWFYPEEIPLVIYFAIPGFSCIILGWVLSKHMEKIEDVNLRQAMMASAFIWLFASLVSVIPFMGIAKMRFVDSYFETMSAWTGTGLTMMSNLESYPKILLFWRAWMQWLGGIGIVLVALTVLIRPGVAAARLYKAEARSERILPNFVNTAKIIVQIYAVLTLLGIYLYYSNGMSLFDATIHSMTGLGTGGMSSHDLSIGYFNSLAIETVTVFLMIMGATNFTVHYRMFKNRSLKEFFRDIQVRYMLYFITLIVALMTYSLVFFGHLTPIRALRESIFHAVSAITCTGFGISNLAEYPEIDKILLAILMVIGGSAGSTSGGIKLIRIVLMYQSLKWTIEQAILPKGAVIRKRVNGYEFTEEEIQEVLGFTMTYIAFLLLGTLYIMLRLGVRFADALFEVASAIGNVGLSVGITSPLLPLDIKILLTILMWVGRLEIFSTIVFIVGLAMIFSRRSKE | failed
MFLFSLTLGVYCSSWTFYGATGAAVREGVIFLPIYLGPLLFVWFGYDIWRRLGRVRQHHAISSIADFVAARYGKSGVLASLVTILAVIAIIPYLALQLRAIALSTSVIMEQSSHIHTTTNSVLLLTSVLAILAMIFGTRQIANTEQHGGLMLAVAFESFVKLFALLCVALFFIFESPANLSQMTSDVNQTFQEVQLFGVPETFWIQTLLAGLAIICLPRQFHVAVVELRDEKHIRGARKWFAVYLILTILAIIPIASWALHAAPKFLTVPDVAVLSLPLSYNQEWLALLAFLGGFSASTGMLLVSSVALSIMLSNDLIMPALWRFKLLSRHDKHLPKVLKFSRRISIVAVMLLGFLFFHFFNDINQLSVFGLLAFSAVAQFAPALIGGLYWRGGSRQGVYAGLIIGFLMWSYTLLFPTILRSLPEAYQETAQSILLFGPFGINALRPESLFGFESFAPLTHGVIWSLGLNIVLYIWISKIYRPSVAEQIQAESFFYYETKPLPSPHTSTDLTYLPHDAARLKVGDLFALAKRITGEQPTTQAFENFCEQNHLTLNPNSIANGMWWRFTEQYLAGIIGAASARTLLTTAMINNGLALGQVANILDQASQWQRFNQNLLMTMIDHMTQGVSVVDKNMCLVAWNNQYLKLFGYPKDLVYVGCPIADLIRYNAERGECGPGSVEEHVRKRLHWMKVGSAHEFERIRKDGRVIQMRGNPIAGGGFVTTFADITAFRANEAVLEARVKDRTQQLADALTEQQLAREQADMANMSKSRFIAAASHDLLQPMHAARLFSTVLEQSISTEEDRQTLQQLDRALYGAESMLSALLDIARLEGGTIQPKRQPYPLHDLLSDLELQFKSIAAQRNISLKVHDVSFWIDTDPQWIRRIIQNFVSNALRYTAKGRVVVGVLRSAQQSGHIRIGVWDTGPGIAEEQRIKLFQEFERCGHLSPWGEQGLGLGLAIVQRMTGLLNYPVHVYSELGKGSCFMIEVPIVEPPKVATPAVQAVPLKTKAYRILCLDNDETILEGMSSLLGRWGYQVFKATEPEQALEIIQKENIQVWLIDQHLNHNQLGVDFITQNRQEDVPVALITADSHPELPQQLKELNIVLLKKPLKPASLRAWLSGLKIASTTD | failed
MFLLEPKQSSNPMQPQETAARYDTIAQWWQTQHQDSQYGLRQLERAIQFVDPTHQPKLALEVGCGSSGRFIECLSNRGFQVEGLDISTAMIDLAQQLHPEVTFYRADICEWIPSKSYSLIVAWDSTFHLPLDQQAPVHRKLCAALEDQGILMFTCGGGDQAGEIAGVFQGQDFEYSTLGIDAFLKLLSDCHCTCLHLEYDQYPERHVYVIAKKVGAAIH | failed
MFMAKRYENMDNVSTKKSIRSFLRWRKERKQNKKDFSFLVEQSPVKQSAFLQSNVEKTTITWIGHSTFLIQTNGLNILTDPVWANKLKLVPRLTEPGLSIEALPKIDIVLISHGHYDHLDFSTLRQLNDDVLYLVPIGLKKLFTRKKFKHVEEYKWWESTIINEVSFHFVPSQHWTRRFLFDMNTSHWGGWIIDNETTMETIYFCGDSGYFQGFKEIGERFLIDIALMPIGAYEPEWFMKVSHVSPEEAVQAYLDLNATHFIPMHYGAFALADETPREAITRLRNNWNLRMLPWEQLHVLFLGQTFIYSNATNNKQIKEKIETLHV | failed
MFMEVSLTSLPAHVMNALDAIWEGSIADSLESETLEFKEDPSCAGRGKQHGNPQAALIEKLIDEAVCLANGDAGTGHIVVGIKDKIGGPEAFTGTTFDTEKIAKKIFDGTRPNLRPEVHEVRYQNNRLIVIYIPEALSLYSRSKGQTSKRVGSHCEPLSEEQRRAIAATRAHADYSNGISEFNVDDIAADTIQEVRRLLKTKRAQSGIDTSLPTTTNGLLRELGLIDNYGALKRAGAILLLPAPEGQLSIRHFWRSFPGIDPEVTDYNQPLLIALSSLKRRITENANKEIKRIQFSDGQEIAVSAFPQTAVDEVVTNAIIHRDWRLSRPVVIDQSPQTLKVWSPGSLPVGVTPNRLLTTQSIPRNSRLMSAMRMLGLAEESSRGFDRIWAALLGSGRDIPDVHTEDTFVEVILHSGNPDESFIKALHELSLSFNPDMLHSVNTLIVLWHLWTSPVISLKQARVKTQTSSKEATELMFALESNGLLTQIHNTDEWFLSEKARKTTNYYQSETIPQSSVQTWVEEKLSSGSPISAAEIAESIGMPRPEITEILRNLRRAGKAHIDPSGPQRGSGTRWIKGT | failed
MFNAGNRIINTWLYPIQDGFVLIDTGYENGFKHFKKRISKFNIKIKDIRYIFLTHAHDDHVGFLNQILDESPNTKIVMHDKALEILYKGQNSFIGGCTSRTAFLFCQIMKLFGKGEHSFSPLKQEFEKRCILVSDKNRKEIEKELNGKIIDTPGHTDDSISLLIDDGVLFCGDSAMNGFPSTHKITIFAESKLEFIQSWKTIINTKPKMIYPGHGKPFEYSKLEQNLIYVNKINLYPLHNSKDIHRFL | failed
MFNESDAPQPPKVLSTPLEIAANLRQLQESHDPLIITFHDRSHRFQSYVVHVDRESNTLALDEMIPRDGEKFIENGEHFRVEGFHDGVRIAWECDHALKISEVDGHRCYSGPLPQEVTYHQRRNAFRAALKLSQLVDIILDGAHLKGNGAMRGKLLDISATGCKLRFEGNVEDRLQLGQVYERFKAGNPLGLVDTMVELRHLHYEERINTTFAGVRFHNLSGQAQRKIESFVYQLQREARRFDKDDY | not failed
MFNFFKNKQTEPAAPPPPKDPTPRIEFFNGISEELSNVSLQRNPKTGVKSVSMTFAQLNALDRFQSFTAGSNGIVRLIDEEGDIAVTPSSCRIVFGGEEGDELRGVICRFEIENDDHWERFMRFMHRYADEHGFAYGESAETSNEPSSLASETDSEA | failed
MFNIKENQTTVKKEILAGITTFFTMVYIVVVNPSILSGTGVPFDQVFTATIIAAVVGTLWMALAANFPIAIAPGMGLNVYFAVSVVGSSNGEISYQTAFSTVFAAGILFIILSLTPLRKQLIEAIPANLKYGITAGIGLFIAFVGLRGAGIITANEANLVGLGNLHSPGVILALIGLAFSVVLMVMNVSGALFFGMILTGLIAFFTGQLEFTKGIMSMPHLPEKLIVTNPFAAFGDVIHYGLYSVVFSFLLVTIFDTTGTMIGVAEQAGLMKNNKLPNARKALLADSTATTVGAMFGTSPTTAYIESSAGVAAGGRTGLTSLTVAVLFGAALFFSPLVSAVSGIAAITSPALIIVGSMMIGAVTNIRWKELDEAFPAFLVILTMPLTSSIATGISLGFIAYPIVKAAKGKWREIHPLVFVFAVLFFIHLFFLEGH | failed
MFPGVFEHLLYQYTSAILSVGFLIFNGLFAVIYNPKKVVGIKGDPDYTFTDITVLIPVYNEVEDIFRKVIKSVSSMGLKFVVVGDGVDQPYRAITEQNGGIFIRLEERRGKRFALSEGMRYIDTRLVLLLDSDTFIDKRSLERMLSYMAEDVGGVSPSIRVWNNGKISYYYANFYEIMSEIVNRATSYFGRTIILSGQCVLYKTSAIRNYVMSNDFTSSKIFNISLKISDDRDLTEYIIERGYKAIKAIDAIAYTKPPENLSQFVKQVVRWTRANYLFFLRSLRDGSLSLRGNLYVFDIIYMNFLPILVIFSLIPLQYPRFDIFNTLSASITSLERLDIFQLILGIPIRAHLPPFDFVLVFILPRVLSIIGGVTFLLVMIKIMEKERGKTLMYGVIALIVQSLASFYSIASMWKQSWSSREKNRKSKK | failed
MFPRALAIGTPAQHKATEAPVTSTSASGLARFNTLEETAALAELHEACAATAWARHLLAARPFATAEDLYAASDAAMAELSAEDLAEAMAGHPPIGRPKPGDATSSREQAGMAGAAEELKAEMLELNLAYQDKFGHVFLICATGRTGEQMRDAALERIGNSPEQEREIVRTELGKINRIRLTRLVEQDARPLEHHHHHH | not failed
